# Test results reported in patent publication US20140308201A1 (Novartis, published 2014).
# Positions count from the first letter of the chain named.
# T1: Mouse FGFR2 IIIb D1-3 (mouse)
# T1 chain: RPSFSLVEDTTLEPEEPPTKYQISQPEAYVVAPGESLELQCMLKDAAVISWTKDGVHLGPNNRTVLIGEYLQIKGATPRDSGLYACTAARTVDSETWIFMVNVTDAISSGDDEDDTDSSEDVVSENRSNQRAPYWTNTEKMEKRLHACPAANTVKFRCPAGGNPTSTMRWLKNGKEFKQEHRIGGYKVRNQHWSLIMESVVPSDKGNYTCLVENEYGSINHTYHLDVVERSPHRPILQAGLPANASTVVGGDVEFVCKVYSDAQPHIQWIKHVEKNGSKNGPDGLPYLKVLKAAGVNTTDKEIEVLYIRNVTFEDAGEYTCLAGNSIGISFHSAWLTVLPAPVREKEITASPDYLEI
# T2: Human FGFR2 IIIb D1-3 (human)
# T2 construct: Extracellular domains D1-3 with C-terminal tag, made in HEK293T; also called recombinant human FGFR2 IIIb; hFGFR2
# T2 chain: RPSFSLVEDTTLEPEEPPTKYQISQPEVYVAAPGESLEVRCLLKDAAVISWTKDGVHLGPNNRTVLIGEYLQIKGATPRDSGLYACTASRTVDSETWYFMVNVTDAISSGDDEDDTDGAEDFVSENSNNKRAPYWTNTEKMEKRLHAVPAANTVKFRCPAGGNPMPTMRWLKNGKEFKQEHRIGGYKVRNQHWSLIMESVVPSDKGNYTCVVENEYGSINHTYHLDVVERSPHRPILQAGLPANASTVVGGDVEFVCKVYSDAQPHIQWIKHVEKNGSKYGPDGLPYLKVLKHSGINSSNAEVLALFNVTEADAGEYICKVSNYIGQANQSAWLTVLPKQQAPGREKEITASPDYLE
# T3: Rat FGFR2 IIIb D1-3 (rat)
# T3 chain: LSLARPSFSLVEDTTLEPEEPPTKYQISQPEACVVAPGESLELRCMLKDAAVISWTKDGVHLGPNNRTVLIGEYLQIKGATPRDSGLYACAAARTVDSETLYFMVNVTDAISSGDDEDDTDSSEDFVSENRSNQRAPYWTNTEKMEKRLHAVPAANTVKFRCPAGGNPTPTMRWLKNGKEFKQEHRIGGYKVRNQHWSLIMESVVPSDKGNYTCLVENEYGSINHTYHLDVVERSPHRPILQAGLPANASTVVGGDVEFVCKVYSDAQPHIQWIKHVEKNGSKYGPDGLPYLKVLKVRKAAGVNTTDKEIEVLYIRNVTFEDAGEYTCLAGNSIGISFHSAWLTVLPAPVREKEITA
# T4: Cynomolgus monkey FGFR2 IIIb D1-3 (cynomolgus monkey)
# T4 construct: also called Cyno FGFR2 IIIb
# T4 chain: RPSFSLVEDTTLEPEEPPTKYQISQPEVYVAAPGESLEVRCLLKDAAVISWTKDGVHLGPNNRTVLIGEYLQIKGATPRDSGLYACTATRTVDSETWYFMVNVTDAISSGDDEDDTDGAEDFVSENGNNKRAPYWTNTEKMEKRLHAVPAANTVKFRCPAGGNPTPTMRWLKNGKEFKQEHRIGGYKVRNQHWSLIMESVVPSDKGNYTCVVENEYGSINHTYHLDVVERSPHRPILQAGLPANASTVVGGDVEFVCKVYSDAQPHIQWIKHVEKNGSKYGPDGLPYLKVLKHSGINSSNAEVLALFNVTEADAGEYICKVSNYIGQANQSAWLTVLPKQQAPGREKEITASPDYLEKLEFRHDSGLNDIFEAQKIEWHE
# T5: FGFR2 D2 (human)
# T5 construct: trypsin was added to the complex before crystallisation; also called FGFR D2; human FGFR2 ECD fragment (domain 2)
# T5 chain: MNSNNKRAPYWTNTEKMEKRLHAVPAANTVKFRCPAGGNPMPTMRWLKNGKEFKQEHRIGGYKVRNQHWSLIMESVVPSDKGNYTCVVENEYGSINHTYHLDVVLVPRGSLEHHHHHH
# T6: FGFR2 D2-D3 Construct (human)
# T6 construct: E. coli made, not glycosylated; also called E. Coli. derived FGFR2D2-D3 protein
# T6 chain: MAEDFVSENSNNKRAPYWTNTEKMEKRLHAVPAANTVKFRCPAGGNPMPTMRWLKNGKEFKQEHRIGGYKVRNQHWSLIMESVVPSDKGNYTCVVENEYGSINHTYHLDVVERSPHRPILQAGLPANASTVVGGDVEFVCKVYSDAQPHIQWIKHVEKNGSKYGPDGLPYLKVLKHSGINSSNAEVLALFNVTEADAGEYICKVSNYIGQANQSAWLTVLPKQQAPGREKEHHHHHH
# B1: mAb11725 (antibody, human IgG1, lambda, V domains shown)
# VH: QVQLLESGGGLVQPGGSLRLSCAASGFTFNTYWLHWVRQAPGKGLEWVSVISSDSSSTYYADSVKGRFTISRDNSKNTLYLQMNSLRAEDTAVYYCARDSRLDYWGQGTLVTVSS
# VL: DIELTQPPSVSVSPGQTASITCSGDSIGDTYVDWYQQKPGQAPVLVIYDDIDRPSGIPERFSGSNSGNTATLTISGTQAEDEADYYCYVYAWTGTSNVFGGGTKLTVLG
# notes: HuCAL human IgG1
# B2: mAb12422 (antibody, human IgG1, kappa, V domains shown)
# VH: QVQLVQSGAEVKKPGSSVKVSCKASGGTFSSYAISWVRQAPGQGLEWMGYISPYMGETHYAQKFQGRVTITADESTSTAYMELSSLRSEDTAVYYCARESYEYFDIWGQGTLVTVSS
# VL: DIQMTQSPSSLSASVGDRVTITCRASQSISNDLAWYQQKPGKAPKLLIYATSILQSGVPSRFSGSGSGTDFTLTISSLQPEDFATYYCLQYYDYSYTFGQGTKVEIKR
# notes: HuCAL human IgG1
# B3: mAb20562 (antibody, human IgG1, kappa, V domains shown)
# VH: EVQLLESGGGLVQPGGSLRLSCAASGFTFSDYAMSWVRQAPGKGLEWVSVIEGDASYTHYADSVRGRFTISRDNSKNTLYLQMNSLRAEDTAVYYCARERTYSSAFDYWGQGTLVTVSS
# VL: DIQMTQSPSSLSASVGDRVTITCRASQDISSDLNWYQQKPGKAPKLLIYDASNLQSGVPSRFSGSGSGTDFTLTISSLQPEDFATYYCQQHYSPSHTFGQGTKVEIKR
# notes: human IgG1
# B4: mAb12947 (antibody, human IgG1, kappa, V domains shown)
# VH: QVQLVQSGAEVKKPGSSVKVSCKASGGTFSSYAISWVRQAPGQGLEWMGSIQPTAGPARYAQKFQGRVTITADESTSTAYMELSSLRSEDTAVYYCARASLYSVATGSYWKVYHPFDSWGQGTLVTVSS
# VL: B3 VL with S30Y, D32Y, N34A, N53S, H91A, Y92D, S93Q, P94Y, S95P, H96V
# notes: HuCAL human IgG1
# B5: 12425 Fab (Fab, V domains shown)
# VH: B3 VH with E1Q, A55G, R65K, R100K
# VL: B3 VL with T85V
# B6: mAb12439 (antibody, human IgG1, kappa, V domains shown)
# VH: QVQLVQSGAEVKKPGASVKVSCKASGYTFTSYDISWVRQAPGQGLEWMGWINPYNGGTNYAQKFQGRVTMTRDTSISTAYMELSRLRSEDTAVYYCAREGSGMIVYPGWSYAFDYWGQGTLVTVSS
# VL: B3 VL with S31N, N34G, D50A, N53S, S93H, P94T, S95P, H96N
# notes: HuCAL human IgG1
# B7: mAb20811 (antibody, human IgG1, kappa, V domains shown)
# VH: B3 VH with E1Q, V50T, A55S, S56N, T58I, H59E, R65K
# VL: B3 VL with Q89H, H91W, P94T, S95L, H96Y
# notes: IgG
# B8: mAb10164 (antibody, human IgG1, lambda, V domains shown)
# VH: QVQLVESGGGLVKPGGSLRLSCAASGFTFSSYALSWVRQAPGKGLEWVGRIRSKIDGGTTDYAAPVKGRFTISRDDSKNTLYLQMNSLKTEDTAVYYCARDRSPSDSSAFAIWGQGTLVTVSS
# VL: DIELTQPPSVSVSPGQTASITCSGDNLGSQYVDWYQQKPGQAPVLVIYDDNDRPSGIPERFSGSNSGNTATLTISGTQAEDEADYYCQSWDSLSVVFGGGTKLTVLG
# notes: HuCAL human IgG1
# B9: mAb20437 (antibody, human IgG1, lambda, V domains shown)
# VH: B8 VH with Q1E, K54R, D56E, K67R
# VL: B8 VL with D1S, I2Y, P8L, S13A, P14L, S19R, G76R, T77A, E80G
# notes: human IgG1
# Key:
# Mouse FGFR2 IIIb D1-3 = molecular target: T1, Mouse FGFR2 IIIb D1-3; assay: SPR Biacore, IgG captured via anti-human Fc, soluble FGFR as analyte
# Experimental: (§1) Affinity of the antibodies to FGFR2 species orthologues was determined using Biacore technology using a Biacore T100 instrument (GE Systems) and with CM5 sensor chips.
# (§2) For kinetic measurements, experiments were performed in which the antibodies were immobilized to the sensor chip surface and the ability of the FGFR proteins described above listed in Table 1 to bind in free solution was determined Briefly, 50 μg/ml of anti-human Fc antibody at pH 4.75 was immobilized on a CM5 sensor chip through amine coupling at flow rate of 10 μl/minute on all four flow cells to reach 6000 RUs. […] Subsequently, 0.078-100 nM of FGFR receptors, diluted in a 2-fold series, were injected at a flow rate of 80 μl/min for 7 min over both reference and test flow cells. Dissociation of the binding was followed for 10 min using HBS-EP⁺ supplemented with 0.5 mg/ml of BSA and 10 μg/ml heparin as running buffer. After each injection cycle, the chip surface was regenerated with 10 mM glycine, pH 2.0 at 60 μl/min for 70 s.
# Human FGFR2 IIIb D1-3 [1] = molecular target: T2, Human FGFR2 IIIb D1-3; assay: as above
# Experimental: as §1, §2
# Rat FGFR2 IIIb D1-3 = molecular target: T3, Rat FGFR2 IIIb D1-3; assay: as above
# Experimental: as §1, §2
# [2] = molecular target: T4, Cynomolgus monkey FGFR2 IIIb D1-3; assay: as above
# Experimental: as §1, §2
# Human FGFR2 IIIb D1-3 [3] = molecular target: T2, Human FGFR2 IIIb D1-3; assay: SPR Biacore, method as Example 2
# Experimental: as §2
# Human FGFR4 ECD = molecular target: T7, Human FGFR4 ECD (human, UniProt P22455 22-369); assay: screening of panning outputs for specificity and cross-reactivity (assays of Example 1)
# T7 construct: Extracellular domain with C-terminal tag
# Human FGFR2 IIIb D1-3 [4] = molecular target: T2, Human FGFR2 IIIb D1-3; assay: SPR Biacore, similar assay conditions
# FGFR2 D2 = molecular target: T5, FGFR2 D2; assay: complex purified by size exclusion chromatography and crystallised
# Experimental: Peak fractions were analyzed by SDS-PAGE and LCMS.
# Crystals were grown by sitting drop vapor diffusion. In detail, 0.1 μl of protein was mixed with 0.1 μl of reservoir solution which contains 0.1 M tri-sodium citrate dihydrate pH 5.0, 20% (w/v) PEG6000; and the drop was equilibrated against 45 μl of the same reservoir solution at 20° C.
# Human FGFR2 IIIb D1-3 [5] = molecular target: T2, Human FGFR2 IIIb D1-3; assay: SET or Biacore, IgG
# FGFR2 D2-D3 Construct = molecular target: T6, FGFR2 D2-D3 Construct; assay: HDx-MS, antigen incubated 30 min with antibody
# Experimental: The epitope mapping experiments described in this example were performed on a Waters HDx-MS platform, which includes a LEAP autosampler, nanoACQUITY UPLC System, and Synapt G2 mass spectrometer. The studies were automated by a LEAP autosampler operated by the LeapShell software, which performed initiation of the deuterium exchange reaction, reaction time control, quench reaction, injection onto the UPLC system and digestion time control. The Leap autosampler was equipped with two temperature controlled stacks maintained at 25° C. for HDx reaction and maintained at 2° C. for storage of protein and quench solution, respectively. Triplicate control experiments were carried out on antigen at a deuterium exchange time of 25 minutes. HDX was quenched with quenching buffer (6 M urea and 1 M TCEP pH=2.5). […] Triplicate experiments were carried out on antigen-mAb complex just as the control experiments except in these experiments the antigen in incubated for 30 min with the antibody at 25° C. prior to deuterium exchange.
# Human FGFR2 IIIb D1-3 [6] = molecular target: T2, Human FGFR2 IIIb D1-3; assay: SPR Biacore, method as Example 2
# Experimental: as §2
# [7] = molecular target: T4, Cynomolgus monkey FGFR2 IIIb D1-3; assay: SPR Biacore, method as Example 2
# Experimental: as §2
# complement factor Clq = molecular target: T8, complement factor Clq (UniProt P02745 23-245; P02746 28-253; P02747 29-245); assay: ELISA, antibody coated in serial dilution, constant C1q; inferred from about 50% coating
# T8 construct: bought (Sigma C1740); also called C1q; Complement component Clq (Sigma C1740)
# Experimental: In additional studies, the ability of the unconjugated anti-FGFR2 antibodies to bind the complement factor Clq was evaluated. […] In order to monitor the amount of bound antibody analyte on the microtiterplate, this procedure was performed twice per plate utilizing the second dilution (in triplicate) for determining the coating efficacy of the analyte to the plate.
# Human FGFR2 IIIb D1-3 [8] = molecular target: T2, Human FGFR2 IIIb D1-3; assay: SPR Biacore, method as Example 2
# T8 sequence (P02745 23-245 limits assumed, chain 1 of 3): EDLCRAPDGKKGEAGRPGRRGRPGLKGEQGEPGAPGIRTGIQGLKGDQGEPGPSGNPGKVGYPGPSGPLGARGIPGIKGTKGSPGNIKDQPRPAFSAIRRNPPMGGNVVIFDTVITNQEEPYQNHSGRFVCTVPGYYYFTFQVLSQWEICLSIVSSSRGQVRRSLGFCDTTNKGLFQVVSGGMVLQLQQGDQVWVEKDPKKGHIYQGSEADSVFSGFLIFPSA
# T8 sequence (P02746 28-253 limits assumed, chain 2 of 3): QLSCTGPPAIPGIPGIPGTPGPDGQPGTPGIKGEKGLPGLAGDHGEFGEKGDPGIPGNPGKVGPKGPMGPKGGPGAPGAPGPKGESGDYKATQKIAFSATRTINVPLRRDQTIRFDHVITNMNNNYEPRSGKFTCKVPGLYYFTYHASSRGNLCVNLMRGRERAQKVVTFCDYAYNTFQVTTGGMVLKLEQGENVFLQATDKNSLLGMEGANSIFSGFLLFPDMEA
# T8 sequence (P02747 29-245 limits assumed, chain 3 of 3): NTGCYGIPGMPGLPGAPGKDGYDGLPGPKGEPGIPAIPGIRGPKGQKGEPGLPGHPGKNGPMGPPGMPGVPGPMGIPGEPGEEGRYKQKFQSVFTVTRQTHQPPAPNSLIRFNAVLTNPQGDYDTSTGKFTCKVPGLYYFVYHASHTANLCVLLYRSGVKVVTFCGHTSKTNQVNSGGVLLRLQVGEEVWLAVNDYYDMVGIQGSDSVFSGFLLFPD
binder,measurement,setting,value
B1,Kd,Mouse FGFR2 IIIb D1-3,130 nM
same,Kd,Human FGFR2 IIIb D1-3 [1],26 nM
same,Kd,Rat FGFR2 IIIb D1-3,140 nM
same,Kd,[2],7.3 nM
same,Kd,Human FGFR2 IIIb D1-3 [3],3.3 nM
B2,Kd,Mouse FGFR2 IIIb D1-3,7.7 nM
same,Kd,Human FGFR2 IIIb D1-3 [1],5.1 nM
same,Kd,Rat FGFR2 IIIb D1-3,9.7 nM
same,Kd,[2],7.4 nM
same,Kd,Human FGFR2 IIIb D1-3 [3],5.1 nM
same,binding result,Human FGFR4 ECD,binds
B3,Kd,Human FGFR2 IIIb D1-3 [4],9 nM
B4,Kd,Mouse FGFR2 IIIb D1-3,3.1 nM
same,Kd,Human FGFR2 IIIb D1-3 [1],2.7 nM
same,Kd,Rat FGFR2 IIIb D1-3,5.1 nM
same,Kd,[2],2.4 nM
same,Kd,Human FGFR2 IIIb D1-3 [3],2.7 nM
B5,binding result,FGFR2 D2,binds
B6,Kd,Mouse FGFR2 IIIb D1-3,15 nM
same,Kd,Human FGFR2 IIIb D1-3 [1],15 nM
same,Kd,Rat FGFR2 IIIb D1-3,16 nM
same,Kd,[2],5.6 nM
same,Kd,Human FGFR2 IIIb D1-3 [3],15 nM
same,binding result,Human FGFR4 ECD,binds
B7,Kd,Human FGFR2 IIIb D1-3 [5],0.11 nM
B8,binding result,FGFR2 D2-D3 Construct,binds
same,Kd,Human FGFR2 IIIb D1-3 [6],2 nM
same,Kd,[7],9 nM
same,Kd,Human FGFR2 IIIb D1-3 [1],19 nM
same,Kd,[2],16 nM
same,Kd,Human FGFR2 IIIb D1-3 [3],2 nM
same,C1q binding capacity against the other antibodies,complement factor Clq,~2 fold
B9,Kd,Human FGFR2 IIIb D1-3 [8],3.1 nM
